# According to publication PMC2882252 (Journal of the American Chemical Society, 2009):
# What was measured:
# [1] = biological target: glutamate racemase (RacE) (Bacillus subtilis, UniProt P94556); format: biochemical
# N[C@H](CCC(=O)O)C(=O)O = experiment: purified protein; format: biochemical, Bacillus subtilis; conditions: active site
# purified protein = substrate: N[C@@H](CCC(=O)O)C(=O)O; experiment: purified protein; conditions: active site, between Cys74 and Cys185
molecule,measurement,setting,value
"O=C(O)c1cccc(C(=O)O)n1 [DPA, 2,6-pyridinedicarboxylic acid]",Ki,[1],1970 ± 1160 µM
glutamate racemase (RacE) T76A (Bacillus subtilis subsp. subtilis str. 168; T76A),Km,N[C@H](CCC(=O)O)C(=O)O,8.6 ± 1.4 mM
glutamate racemase (RacE) (Bacillus subtilis subsp. subtilis str. 168) (protein) MLEQPIGVIDSGVGGLTVAKEIMRQLPKENIIYVGDTKRCPYGPRPEEEVLQYTWELTNYLLENHHIKMLVIACNTATAIALDDIQRSVGIPVVGVIQPGARAAIKVTDNQHIGVIGTENTIKSNAYEEALLALNPDLKVENLACPLLVPFVESGKFLDKTADEIVKTSLYPLKDTSIDSLILGCTHYPILKEAIQRYMGEHVNIISSGDETAREVSTILSYKGLLNQSPIAPDHQFLTTGARDQFAKIADDWFGHEVGHVECISLQEPIKR,Km,purified protein,14 ± 6 mM
